Results published in patent US20220119490A1 (Genentech, published 2022).

Experiments:
[1] = target: T1, CHL1 extracellular domain (human, UniProt O00533 25-1082); assay: SPR, CHL1 immobilized, CNTN1 ECD-Fc injected at 250 nM
T1 construct: extracellular domain; Soluble query (streptavidin tetramer) in cell assays; recombinant protein (R&D) in SPR; also called neural cell adhesion molecule L1-like protein; close homolog of L1
T1 sequence (looked up): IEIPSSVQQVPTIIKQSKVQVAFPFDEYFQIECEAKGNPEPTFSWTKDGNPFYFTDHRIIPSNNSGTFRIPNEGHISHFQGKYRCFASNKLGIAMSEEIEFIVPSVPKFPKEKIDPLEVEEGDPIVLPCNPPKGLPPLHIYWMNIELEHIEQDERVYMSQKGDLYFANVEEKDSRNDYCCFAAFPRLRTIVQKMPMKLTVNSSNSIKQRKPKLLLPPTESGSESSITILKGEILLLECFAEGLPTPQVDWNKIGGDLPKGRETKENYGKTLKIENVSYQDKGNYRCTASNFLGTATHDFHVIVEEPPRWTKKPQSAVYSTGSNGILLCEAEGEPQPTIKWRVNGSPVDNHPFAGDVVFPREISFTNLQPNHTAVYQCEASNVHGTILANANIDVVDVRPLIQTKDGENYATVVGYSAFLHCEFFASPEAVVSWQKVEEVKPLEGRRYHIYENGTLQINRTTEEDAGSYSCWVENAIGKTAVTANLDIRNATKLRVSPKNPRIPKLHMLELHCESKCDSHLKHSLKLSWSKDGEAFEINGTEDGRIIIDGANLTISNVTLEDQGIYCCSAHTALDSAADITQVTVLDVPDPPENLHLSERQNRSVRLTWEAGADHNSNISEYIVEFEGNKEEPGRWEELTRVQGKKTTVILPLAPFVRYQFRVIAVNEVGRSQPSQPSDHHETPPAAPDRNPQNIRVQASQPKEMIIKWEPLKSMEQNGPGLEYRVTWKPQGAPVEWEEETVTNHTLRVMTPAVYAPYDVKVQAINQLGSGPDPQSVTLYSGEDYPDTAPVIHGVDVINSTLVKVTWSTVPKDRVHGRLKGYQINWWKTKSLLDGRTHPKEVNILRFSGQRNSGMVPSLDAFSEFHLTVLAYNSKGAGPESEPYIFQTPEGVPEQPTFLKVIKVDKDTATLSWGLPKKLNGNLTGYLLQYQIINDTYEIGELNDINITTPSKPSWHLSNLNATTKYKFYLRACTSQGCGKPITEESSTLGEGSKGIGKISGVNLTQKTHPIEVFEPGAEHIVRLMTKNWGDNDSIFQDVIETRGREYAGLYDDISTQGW

PTPRG expressed on cells = target: T2, PTPRG expressed on cells (human, UniProt P23470 20-1445); assay: cell surface interaction assay: query ECD tetramerised with fluorescent streptavidin on transfected cells, immunofluorescence
T2 construct: whole, on cells
T2 sequence (P23470 20-1445): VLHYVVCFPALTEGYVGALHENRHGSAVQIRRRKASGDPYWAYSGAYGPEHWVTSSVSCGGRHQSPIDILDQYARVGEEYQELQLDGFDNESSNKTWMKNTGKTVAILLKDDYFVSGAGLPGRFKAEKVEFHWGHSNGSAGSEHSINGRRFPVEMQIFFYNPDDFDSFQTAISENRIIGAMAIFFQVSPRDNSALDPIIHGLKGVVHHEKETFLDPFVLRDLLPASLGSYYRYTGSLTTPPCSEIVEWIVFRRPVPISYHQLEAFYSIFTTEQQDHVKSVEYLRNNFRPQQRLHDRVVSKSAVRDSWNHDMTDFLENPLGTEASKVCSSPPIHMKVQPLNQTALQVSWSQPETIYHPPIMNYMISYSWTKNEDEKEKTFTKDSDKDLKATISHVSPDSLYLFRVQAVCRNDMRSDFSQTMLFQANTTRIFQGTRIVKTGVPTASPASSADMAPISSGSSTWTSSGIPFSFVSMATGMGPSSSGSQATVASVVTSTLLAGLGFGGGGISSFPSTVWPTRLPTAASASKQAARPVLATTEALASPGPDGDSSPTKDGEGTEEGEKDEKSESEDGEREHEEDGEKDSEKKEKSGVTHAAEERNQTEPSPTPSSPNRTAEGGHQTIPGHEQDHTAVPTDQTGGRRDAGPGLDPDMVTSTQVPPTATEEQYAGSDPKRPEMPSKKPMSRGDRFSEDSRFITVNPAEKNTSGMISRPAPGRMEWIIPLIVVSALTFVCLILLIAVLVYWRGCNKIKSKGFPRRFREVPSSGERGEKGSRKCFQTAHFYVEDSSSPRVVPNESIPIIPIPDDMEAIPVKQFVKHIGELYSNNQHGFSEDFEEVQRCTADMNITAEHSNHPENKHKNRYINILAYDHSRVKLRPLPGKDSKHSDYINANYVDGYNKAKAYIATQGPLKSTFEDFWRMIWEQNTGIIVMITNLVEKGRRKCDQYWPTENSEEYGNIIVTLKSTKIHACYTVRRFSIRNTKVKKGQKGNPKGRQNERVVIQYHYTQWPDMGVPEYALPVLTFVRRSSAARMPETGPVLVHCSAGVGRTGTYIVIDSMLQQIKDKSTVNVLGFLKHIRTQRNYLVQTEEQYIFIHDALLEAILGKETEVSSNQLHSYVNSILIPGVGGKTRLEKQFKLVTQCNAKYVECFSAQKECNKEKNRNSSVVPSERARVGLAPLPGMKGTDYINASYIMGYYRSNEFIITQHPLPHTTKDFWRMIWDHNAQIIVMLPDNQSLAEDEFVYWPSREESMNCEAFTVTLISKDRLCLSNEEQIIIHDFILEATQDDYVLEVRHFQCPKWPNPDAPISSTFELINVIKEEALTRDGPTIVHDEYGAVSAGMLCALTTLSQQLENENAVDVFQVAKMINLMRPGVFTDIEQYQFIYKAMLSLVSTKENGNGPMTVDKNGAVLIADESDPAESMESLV

PTPRD expressed on cells = target: T3, PTPRD expressed on cells (human, UniProt P23468 21-1912); assay: as above
T3 construct: whole, on cells; also called receptor-type tyrosine-protein phosphatase delta

PTPRT expressed on cells = target: T4, PTPRT expressed on cells (human, UniProt O14522 26-1441); assay: as above
T4 construct: whole, on cells
T4 sequence (looked up): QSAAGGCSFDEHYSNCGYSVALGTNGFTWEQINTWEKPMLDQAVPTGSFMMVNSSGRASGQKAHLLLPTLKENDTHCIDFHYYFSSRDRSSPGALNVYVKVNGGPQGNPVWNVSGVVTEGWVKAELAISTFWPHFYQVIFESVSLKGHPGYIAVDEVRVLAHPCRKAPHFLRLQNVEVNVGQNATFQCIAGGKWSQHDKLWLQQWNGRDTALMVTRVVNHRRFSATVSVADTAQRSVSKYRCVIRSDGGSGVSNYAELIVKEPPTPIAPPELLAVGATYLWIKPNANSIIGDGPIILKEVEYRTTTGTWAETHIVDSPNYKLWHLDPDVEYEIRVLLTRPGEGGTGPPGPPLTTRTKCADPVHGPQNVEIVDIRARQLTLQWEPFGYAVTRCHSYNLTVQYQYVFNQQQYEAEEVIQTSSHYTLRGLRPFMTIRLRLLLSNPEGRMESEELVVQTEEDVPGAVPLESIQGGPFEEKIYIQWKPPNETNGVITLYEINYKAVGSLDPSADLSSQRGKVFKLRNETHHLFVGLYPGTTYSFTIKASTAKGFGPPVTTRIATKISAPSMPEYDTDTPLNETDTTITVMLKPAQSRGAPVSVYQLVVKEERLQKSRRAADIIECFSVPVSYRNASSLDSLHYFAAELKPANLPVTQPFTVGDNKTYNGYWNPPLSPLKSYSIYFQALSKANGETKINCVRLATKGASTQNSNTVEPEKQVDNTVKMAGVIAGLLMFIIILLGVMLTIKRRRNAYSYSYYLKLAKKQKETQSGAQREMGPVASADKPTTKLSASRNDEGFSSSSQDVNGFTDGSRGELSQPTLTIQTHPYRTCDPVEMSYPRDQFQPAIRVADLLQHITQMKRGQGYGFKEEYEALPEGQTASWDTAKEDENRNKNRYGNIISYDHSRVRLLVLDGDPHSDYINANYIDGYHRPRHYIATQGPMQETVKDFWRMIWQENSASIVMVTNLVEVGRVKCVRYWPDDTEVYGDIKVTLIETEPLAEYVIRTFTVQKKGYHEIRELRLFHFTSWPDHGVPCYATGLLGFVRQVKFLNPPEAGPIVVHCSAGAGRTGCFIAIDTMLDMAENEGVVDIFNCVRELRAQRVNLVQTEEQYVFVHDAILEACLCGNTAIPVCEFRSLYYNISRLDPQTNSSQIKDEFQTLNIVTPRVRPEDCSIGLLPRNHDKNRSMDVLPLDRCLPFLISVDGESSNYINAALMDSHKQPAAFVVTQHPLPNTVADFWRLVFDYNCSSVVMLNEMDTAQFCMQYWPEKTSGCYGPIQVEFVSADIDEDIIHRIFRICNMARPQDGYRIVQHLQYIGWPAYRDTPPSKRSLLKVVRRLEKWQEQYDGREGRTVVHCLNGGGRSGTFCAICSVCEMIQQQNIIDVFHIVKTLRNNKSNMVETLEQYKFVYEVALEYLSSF

binding result [1]: binds
binding result (PTPRG expressed on cells): no binding
binding result (PTPRD expressed on cells): no binding
binding result (PTPRT expressed on cells): no binding
B1: CNTN1 extracellular domain (receptor, human, UniProt Q12860 21-993, looked up)
chain: EFTWYRRYGHGVSEEDKGFGPIFEEQPINTIYPEESLEGKVSLNCRARASPFPVYKWRMNNGDVDLTSDRYSMVGGNLVINNPDKQKDAGIYYCLASNNYGMVRSTEATLSFGYLDPFPPEERPEVRVKEGKGMVLLCDPPYHFPDDLSYRWLLNEFPVFITMDKRRFVSQTNGNLYIANVEASDKGNYSCFVSSPSITKSVFSKFIPLIPIPERTTKPYPADIVVQFKDVYALMGQNVTLECFALGNPVPDIRWRKVLEPMPSTAEISTSGAVLKIFNIQLEDEGIYECEAENIRGKDKHQARIYVQAFPEWVEHINDTEVDIGSDLYWPCVATGKPIPTIRWLKNGYAYHKGELRLYDVTFENAGMYQCIAENTYGAIYANAELKILALAPTFEMNPMKKKILAAKGGRVIIECKPKAAPKPKFSWSKGTEWLVNSSRILIWEDGSLEINNITRNDGGIYTCFAENNRGKANSTGTLVITDPTRIILAPINADITVGENATMQCAASFDPALDLTFVWSFNGYVIDFNKENIHYQRNFMLDSNGELLIRNAQLKHAGRYTCTAQTIVDNSSASADLVVRGPPGPPGGLRIEDIRATSVALTWSRGSDNHSPISKYTIQTKTILSDDWKDAKTDPPIIEGNMEAARAVDLIPWMEYEFRVVATNTLGRGEPSIPSNRIKTDGAAPNVAPSDVGGGGGRNRELTITWAPLSREYHYGNNFGYIVAFKPFDGEEWKKVTVTNPDTGRYVHKDETMSPSTAFQVKVKAFNNKGDGPYSLVAVINSAQDAPSEAPTEVGVKVLSSSEISVHWEHVLEKIVESYQIRYWAAHDKEEAANRVQVTSQEYSARLENLLPDTQYFIEVGACNSAGCGPPSDMIEAFTKKAPPSQPPRIISSVRSGSRYIITWDHVVALSNESTVTGYKVLYRPDGQHDGKLYSTHKHSIEVPIPRDGEYVVEVRAHSDGGDGVVSQVKIS
notes: extracellular domain; Streptavidin tetramer in cell assays; ECD-Fc in SPR; also called contactin 1
